In PMC2699158:
pKd: −log10 of the molar value.

Target: taxol-stabilized microtubules
Assay: co-sedimentation

Substance: 6×His-CLASP2(340–650), wild type (from UniProt O75122-3 340-650) (domain or fragment)
- pKd: > 6.52
